What was measured:
Experiment in all cases: HPLC-UV pyrophosphohydrolase assay, Eadie-Hofstee
Format in all cases: biochemical, Corynebacterium glutamicum
[1] = substrate: Nc1nc2c(ncn2[C@@H]2O[C@H](COP(=O)(O)O)[C@@H](OP(=O)(O)OP(=O)(O)O)[C@H]2O)c(=O)[nH]1; settings: 1 mM MnCl2, 50 mM HEPES-Na pH 8.0, 200 mM NaCl, 30°C, substrate inhibition, approximate fit from lowest concentrations
Description: (§1) HPLC-UV pyrophosphohydrolase assay, Eadie-Hofstee on RelCg

[2] = substrate: Nc1nc2c(ncn2[C@@H]2O[C@H](COP(=O)(O)OP(=O)(O)O)[C@@H](OP(=O)(O)OP(=O)(O)O)[C@H]2O)c(=O)[nH]1; settings: 1 mM MnCl2, 50 mM HEPES-Na pH 8.0, 200 mM NaCl, 30°C, substrate inhibition, approximate fit from lowest concentrations
Description: as §1

[3] = substrate: Nc1nc2c(ncn2[C@@H]2O[C@H](COP(=O)(O)OP(=O)(O)OP(=O)(O)O)[C@@H](OP(=O)(O)OP(=O)(O)O)[C@H]2O)c(=O)[nH]1; settings: 1 mM MnCl2, 50 mM HEPES-Na pH 8.0, 200 mM NaCl, 30°C, substrate inhibition, approximate fit from lowest concentrations, only two data points, no error analysis
Description: as §1

[4] = substrate: Nc1nc2c(ncn2[C@@H]2O[C@H](COP(=O)(O)O)[C@@H](OP(=O)(O)OP(=O)(O)O)[C@H]2O)c(=O)[nH]1; settings: 1 mM MnCl2, 50 mM HEPES-Na pH 8.0, 200 mM NaCl, 30°C, substrate inhibition, approximate fit from lowest concentrations, only two data points, no error analysis
Description: (§2) HPLC-UV pyrophosphohydrolase assay, Eadie-Hofstee on […]

[5] = substrate: Nc1nc2c(ncn2[C@@H]2O[C@H](COP(=O)(O)OP(=O)(O)O)[C@@H](OP(=O)(O)OP(=O)(O)O)[C@H]2O)c(=O)[nH]1; settings: 1 mM MnCl2, 50 mM HEPES-Na pH 8.0, 200 mM NaCl, 30°C, substrate inhibition, approximate fit from lowest concentrations; remark: listed apart in the source
Description: as §2

[6] = substrate: Nc1nc2c(ncn2[C@@H]2O[C@H](COP(=O)(O)OP(=O)(O)OP(=O)(O)O)[C@@H](OP(=O)(O)OP(=O)(O)O)[C@H]2O)c(=O)[nH]1; settings: 1 mM MnCl2, 50 mM HEPES-Na pH 8.0, 200 mM NaCl, 30°C, substrate inhibition, approximate fit from lowest concentrations
Description: as §2

B1: RelCg (Corynebacterium glutamicum ATCC 13032) (protein)
chain: MSLERNTQKSSMGVRSMSARLARSLTGNRVRTNPVLDPLLSIHRQFHPRADVQVLERAYDTAERLHDGVIRKSGDPYITHPLAVATIAAEIGMDTTTLVAALLHDTVEDTDYSLDDLTRDFGEEVARLVDGVTKLDKVALGAAAEAETIRKMIVAMSQDPRVLVIKVADRLHNMRTMRFLPPEKQAKKARQTLEVIAPLAHRLGMASVKWELEDLSFAILYPKKYEEIVRLVADRAPSRDRYLKEIIDQVTGGLRENNIAAEVLGRPKHYWSIYQKMIVRGRDFDDIFDLVGIRILVDNVNNCYAAIGVVHSLFNALPGRFKDYISAPRFGVYQSLHTTVMGPGGKPLEVQARTHDMHYNAEFGIAAHWRYKETKGSHSGEQAEVDQMAWMRQLLDWQKEAADPNEFLDSLRYDLTSKQIFVFTPKGDVVNLPVNSTPVDFAYAVHTEVGHRCIGAKINGKLVALETKLKSGDRVEVFTSKDQNAGPSRGWQEFVVSPRAKAKIRQWFAKERREEYLEAGRDALAAVIQRGGLPMHRLFTASSMKTVATELHYPDVDALYTAIGSGSVSAQHVVNRLMAIFGDEEDAEDALVARTPFSELVNSRATTESSTGILVEGSPDVMAKLAKCCMPVPGDEIFGFVTRGGGVSVHRTDCTNVEKLKEEPERIVSVSWASEGQGSVFSATLQLEALDRAGLLFELTRVINEQKVSVTAMNSHCSEDRVATVRFTFAVSDTKQLGSLMTQLRNAEGVFDVYRVTSGG
notes: full-length bifunctional RSH; expressed in E. coli ER2566
Km [1]: 734 ± 127 µM | kcat [1]: 0.794 ± 0.071 s⁻¹ | kcat/Km [1]: 1080 M⁻¹ s⁻¹ | Km [2]: 511 ± 10 µM | kcat [2]: 0.296 ± 0.004 s⁻¹ | kcat/Km [2]: 579 M⁻¹ s⁻¹ | Km [3]: 422 µM | kcat [3]: 0.563 s⁻¹ | kcat/Km [3]: 1340 M⁻¹ s⁻¹

B2: RelHCg (Corynebacterium glutamicum ATCC 13032) (protein)
chain: MNTLSPRLRKAMNTAAWAHRHHVRKGGGIPYVSHLYSVMYLLASVTNDEDVLIAGLLHDTLEDVPEEYNSAQLEADFGPRVRELVEELTKQPLKSWKARADAYLLHLSAGASLEAVLISTADKLHNLMSILDDLEIHGEDLWQRFNAGKEQQIWWYSEVYQISLQRLGFNELNKQLGLCVEKLLKQSA
notes: full-length; expressed in E. coli ER2566
Km [4]: 144 µM | kcat [4]: 0.294 s⁻¹ | kcat/Km [4]: 2040 M⁻¹ s⁻¹ | Km [5]: 101 ± 7 µM | kcat [5]: 0.502 ± 0.018 s⁻¹ | kcat/Km [5]: 4970 M⁻¹ s⁻¹ | Km [6]: 90 ± 11 µM | kcat [6]: 0.09 ± 0.003 s⁻¹ | kcat/Km [6]: 1010 M⁻¹ s⁻¹

— article PMC5954133, “Functional Characterization of a Small Alarmone Hydrolase in Corynebacterium glutamicum” (Frontiers in Microbiology, 2018)
